B1: HDV Ribozyme (parent)
chain: GGCCGGCAUGGUCCCAGCCUCCUCGCUGGCGCCGGCUGGGCAACAUUCCGAGGGGACCGUCCCCUCGGUAAUGGCGAAUGGGACCCA

In this series the parent is B1. The series can be described thus: self-cleavage, relative activity (ratio to wild type); higher = more cleavage; co-transcriptional.
On to G39C A71G, for which the self-cleavage came to 0.158.

Consider G38A G55A, for which the self-cleavage stood at 0.0821.

Take G38A G55U: the self-cleavage was found to be 0.19.

With G38A U60G, the self-cleavage worked out at 0.0386.

For the variant G38A U60C, the self-cleavage turned out to be 0.0272.

G38U G67C: the self-cleavage came out at 0.197.

G38C A71C: the self-cleavage amounted to 0.231.

Take G39A U47G: the self-cleavage was found to be 0.185.

As to G38U G52A, the self-cleavage was 0.305.

On to G39C A42U, for which the self-cleavage turned out to be 0.227.

With G39C A42G, the self-cleavage is 0.0811.

G39A G82C: the self-cleavage amounted to 0.128.

Consider G39A G82A, for which the self-cleavage came out at 0.136.

For the variant G38C G82A, the self-cleavage was 0.0594.

Consider G38A A43C, for which the self-cleavage stood at 0.0449.

For G38U U72C, the self-cleavage stood at 0.0978.

With G38U U72G, the self-cleavage was 0.145.

On to G38U A87U, for which the self-cleavage was 0.255.

G38U A87C: the self-cleavage was found to be 0.231.

Take G39A C58U: the self-cleavage came to 0.443.

As for G39A C58A, the self-cleavage was found to be 0.475.

In the case of G39A C85G, the self-cleavage is 0.523.

Turning to G38C G53U, the self-cleavage is 0.266.

In the case of G39A U65A, the self-cleavage turned out to be 0.396.

With G39A U65C, the self-cleavage was 0.463.

G39A U69A: the self-cleavage came out at 0.443.

For the variant G39A U69C, the self-cleavage came to 0.609.

In the case of G39A U69G, the self-cleavage was found to be 0.305.

Turning to G39A A78G, the self-cleavage turned out to be 0.131.

For G39A A78U, the self-cleavage amounted to 0.201.

Turning to G39A A78C, the self-cleavage amounted to 0.0563.

Turning to G39C A56G, the self-cleavage was 0.356.

G39C A56U: the self-cleavage turned out to be 0.13.

In the case of G39C A56C, the self-cleavage was found to be 0.18.

Regarding G38U G81U, the self-cleavage is 0.0545.

As to G38U U47A, the self-cleavage worked out at 0.109.

Turning to G38A A56G, the self-cleavage stood at 0.108.

As for G38A A42G, the self-cleavage was 0.095.

As for G38A A42C, the self-cleavage came out at 0.148.

As to G38A A42U, the self-cleavage stood at 0.

G38A G39A: the self-cleavage turned out to be 0.0963.

For G38A G39C, the self-cleavage was found to be 0.0923.

Regarding G39A A87U, the self-cleavage was 0.531.

As to G38C C58A, the self-cleavage was determined as 0.361.

As for G38C C58G, the self-cleavage came to 0.237.

Consider G38A C57A, for which the self-cleavage was 0.128.

In the case of G38A C57U, the self-cleavage was 0.211.

With G38A C57G, the self-cleavage turned out to be 0.224.

For G38A G76A, the self-cleavage was determined as 0.112.

For the variant G38A G76C, the self-cleavage stood at 0.0767.

In the case of G38A G76U, the self-cleavage is 0.202.

Regarding G38U G59U, the self-cleavage turned out to be 0.284.

G38U A70G: the self-cleavage was 0.227.

In the case of G38U A70C, the self-cleavage turned out to be 0.158.

Take G39A G54A: the self-cleavage was 0.54.

As to G38U G54A, the self-cleavage came out at 0.227.

For G38U G54U, the self-cleavage is 0.325.

For G38A G73A, the self-cleavage amounted to 0.0875.

As to G39A C66G, the self-cleavage turned out to be 0.437.

For G39A C66A, the self-cleavage stood at 0.441.

In the case of G38U G68U, the self-cleavage turned out to be 0.119.

For G38C G67A, the self-cleavage came out at 0.194.

Regarding G38C G67C, the self-cleavage was 0.157.

On to G38C G67U, for which the self-cleavage was found to be 0.366.

For the variant G38U G53C, the self-cleavage amounted to 0.434.

As for G38U G53A, the self-cleavage came to 0.369.

In the case of G38U G53U, the self-cleavage was 0.342.

With G38A G81U, the self-cleavage is 0.176.

G38A G81C: the self-cleavage amounted to 0.0712.

Take G38C A87U: the self-cleavage is 0.252.

Take G38C A87G: the self-cleavage stood at 0.155.

Turning to G38U C61U, the self-cleavage is 0.174.

Regarding G38C C61U, the self-cleavage was found to be 0.136.

Consider G38A C75G, for which the self-cleavage was 0.0302.

In the case of G38A C75U, the self-cleavage was found to be 0.0443.

In the case of G38C G59A, the self-cleavage worked out at 0.199.

G38C G59U: the self-cleavage was determined as 0.233.

For the variant G38C A42U, the self-cleavage was determined as 0.208.

For G38C A42C, the self-cleavage came out at 0.104.

Turning to G39A G81U, the self-cleavage was 0.147.

As to G38U G73C, the self-cleavage turned out to be 0.169.

G38U G73U: the self-cleavage was found to be 0.146.

As to G38U G73A, the self-cleavage is 0.149.

As for U37G G74C, the self-cleavage stood at 0.0361.

For G38A G53C, the self-cleavage stood at 0.0678.

Turning to G38A G53U, the self-cleavage was 0.0567.

Regarding G38A G50A, the self-cleavage came out at 0.0886.

For the variant G38A G50U, the self-cleavage turned out to be 0.157.

For the variant G39C A43U, the self-cleavage was determined as 0.

As to G39C A43G, the self-cleavage is 0.147.

For G39C A43C, the self-cleavage turned out to be 0.138.

Take G38C G40A: the self-cleavage turned out to be 0.0978.

Consider G38C G40C, for which the self-cleavage worked out at 0.0405.

Take G38U A77G: the self-cleavage came to 0.0923.

As to G38C U79A, the self-cleavage was 0.151.

With G38C U79G, the self-cleavage was found to be 0.

For the variant G38U U69A, the self-cleavage came out at 0.256.

For the variant G38U U69G, the self-cleavage was 0.272.

Consider G38U U69C, for which the self-cleavage stood at 0.192.

G38A G74A: the self-cleavage amounted to 0.0755.

As for G38A G74U, the self-cleavage was 0.0934.

On to G39A U72A, for which the self-cleavage amounted to 0.133.

With G38U C48A, the self-cleavage is 0.0978.

For the variant G38U C48U, the self-cleavage was 0.141.

As for G38U C75U, the self-cleavage stood at 0.163.

With G38U C75G, the self-cleavage amounted to 0.0707.

On to G38U U60C, for which the self-cleavage was determined as 0.374.

Consider G38U U60A, for which the self-cleavage amounted to 0.175.

Regarding G38U U60G, the self-cleavage stood at 0.13.

For the variant G39A G55C, the self-cleavage worked out at 0.443.

G39A U79A: the self-cleavage stood at 0.162.

On to G39A U79C, for which the self-cleavage is 0.0723.

On to G39A U79G, for which the self-cleavage turned out to be 0.262.

With G38U C49A, the self-cleavage came to 0.264.

On to G38U C49G, for which the self-cleavage came to 0.0739.

On to G39A C57U, for which the self-cleavage was found to be 0.665.

G39A C57A: the self-cleavage is 0.41.

Consider G38A C41U, for which the self-cleavage turned out to be 0.354.

In the case of G38A C41A, the self-cleavage is 0.185.

As to G38C G54A, the self-cleavage was determined as 0.132.

Take G38C G54C: the self-cleavage came out at 0.237.

For G38C C63U, the self-cleavage was determined as 0.194.

U37G U65C: the self-cleavage turned out to be 0.123.

As for G38C U46A, the self-cleavage amounted to 0.101.

Take G39A C44U: the self-cleavage is 0.185.

As to G39A G59A, the self-cleavage amounted to 0.426.

Consider U37G U46G, for which the self-cleavage was 0.332.

For U37G U46A, the self-cleavage worked out at 0.

In the case of G38C C86U, the self-cleavage is 0.145.

As to G38C C86A, the self-cleavage amounted to 0.136.

On to G39A G52C, for which the self-cleavage turned out to be 0.394.

As to G39A G52A, the self-cleavage came out at 0.405.

On to G39A G52U, for which the self-cleavage came to 0.478.

Regarding G38C G39A, the self-cleavage is 0.113.

For the variant G38C G39U, the self-cleavage is 0.0396.

On to G38A G82U, for which the self-cleavage came out at 0.0405.

Take U37G U69A: the self-cleavage is 0.119.

In the case of U37G U69C, the self-cleavage was determined as 0.128.

Consider U37G U69G, for which the self-cleavage was 0.0723.

For G38U C85G, the self-cleavage amounted to 0.295.

With G38A C62A, the self-cleavage worked out at 0.0733.

For G38C C62A, the self-cleavage stood at 0.354.

G38C C62G: the self-cleavage was 0.208.

With G38C C84A, the self-cleavage is 0.18.

G38C C44G: the self-cleavage was 0.222.

As to G38U G80U, the self-cleavage is 0.0802.

As for G38U G80C, the self-cleavage was 0.108.

For the variant G38U G80A, the self-cleavage was 0.102.

With G38U A83U, the self-cleavage came out at 0.0959.

Take G38U A83C: the self-cleavage was 0.0773.

As for U37G G80C, the self-cleavage came out at 0.0449.

Consider U37G G80U, for which the self-cleavage is 0.203.

On to U37G G80A, for which the self-cleavage was determined as 0.0308.

On to G38A U65A, for which the self-cleavage was 0.273.

On to G38U U79G, for which the self-cleavage was 0.208.

Regarding G38U U79C, the self-cleavage was 0.112.

G38U U79A: the self-cleavage turned out to be 0.

Turning to U37G G67U, the self-cleavage worked out at 0.18.

As to G38C G52C, the self-cleavage was found to be 0.

Take G38C G52U: the self-cleavage is 0.249.

For the variant G38C U72G, the self-cleavage is 0.

G38C U72A: the self-cleavage is 0.158.

For the variant G38U G82C, the self-cleavage was 0.218.

Turning to G38U G82U, the self-cleavage is 0.129.

Take G38C A45G: the self-cleavage came to 0.227.

As to G38C A45C, the self-cleavage is 0.0678.

As for G38C A45U, the self-cleavage worked out at 0.213.

(Values after the RNAGym collection of RNA variant scans (doi:10.7554/elife.80360).)
